Reference: the Human Domainome abundance scans (Beltran et al. 2025)
± gives the uncertainty stated by the source.

B1: Tesmin, residues 368 to 403; numbered along this chain, Q9Y4I5 (parent)
chain: KGCNCRRSGCLKNYCECYEAQIMCSSICKCIGCKNY

Variants of: B1
Experiment: abundance fitness (aPCA) (normalised: wild type 0, dead -1); higher = more abundant; growth selection in yeast, the domain comes from the species named
Conditions: Homo sapiens
For KGCNCDRSGCLKNYCECYEAQIMCSSICKCIGCKNY [R6D], the abundance fitness was 0.156 ± 0.14. KGCNCERSGCLKNYCECYEAQIMCSSICKCIGCKNY [R6E] gave an abundance fitness of 0.214 ± 0.1. With KGCNCFRSGCLKNYCECYEAQIMCSSICKCIGCKNY [R6F] the abundance fitness was -0.169 ± 0.19. KGCNCGRSGCLKNYCECYEAQIMCSSICKCIGCKNY [R6G] showed an abundance fitness of 0.151 ± 0.073. For KGCNCKRSGCLKNYCECYEAQIMCSSICKCIGCKNY [R6K], the abundance fitness was 0.146 ± 0.1. KGCNCLRSGCLKNYCECYEAQIMCSSICKCIGCKNY [R6L] showed an abundance fitness of 0.204 ± 0.085. Variant KGCNCNRSGCLKNYCECYEAQIMCSSICKCIGCKNY [R6N] has an abundance fitness of -0.361 ± 0.35. In the case of KGCNCQRSGCLKNYCECYEAQIMCSSICKCIGCKNY [R6Q], the abundance fitness is reported as 0.338 ± 0.1. In the case of KGCNCSRSGCLKNYCECYEAQIMCSSICKCIGCKNY [R6S], the abundance fitness is reported as 0.303 ± 0.087. Variant KGCNCTRSGCLKNYCECYEAQIMCSSICKCIGCKNY [R6T] has an abundance fitness of 0.239 ± 0.085. Variant KGCNCVRSGCLKNYCECYEAQIMCSSICKCIGCKNY [R6V] has an abundance fitness of 0.12 ± 0.073. KGCNCWRSGCLKNYCECYEAQIMCSSICKCIGCKNY [R6W] showed an abundance fitness of 0.012 ± 0.081. Variant KGCNCRASGCLKNYCECYEAQIMCSSICKCIGCKNY [R7A] has an abundance fitness of 0.248 ± 0.075. Work on KGCNCRCSGCLKNYCECYEAQIMCSSICKCIGCKNY [R7C] yielded an abundance fitness of -0.401 ± 0.14. Variant KGCNCRESGCLKNYCECYEAQIMCSSICKCIGCKNY [R7E] has an abundance fitness of 0.398 ± 0.096. Variant KGCNCRGSGCLKNYCECYEAQIMCSSICKCIGCKNY [R7G] has an abundance fitness of 0.268 ± 0.073. Work on KGCNCRISGCLKNYCECYEAQIMCSSICKCIGCKNY [R7I] yielded an abundance fitness of -0.336 ± 0.14. In the case of KGCNCRKSGCLKNYCECYEAQIMCSSICKCIGCKNY [R7K], the abundance fitness is reported as 0.039 ± 0.17. In the case of KGCNCRLSGCLKNYCECYEAQIMCSSICKCIGCKNY [R7L], the abundance fitness is reported as -0.021 ± 0.077. KGCNCRMSGCLKNYCECYEAQIMCSSICKCIGCKNY [R7M] gave an abundance fitness of 0.214 ± 0.18. With KGCNCRPSGCLKNYCECYEAQIMCSSICKCIGCKNY [R7P] the abundance fitness was -0.103 ± 0.085. Work on KGCNCRQSGCLKNYCECYEAQIMCSSICKCIGCKNY [R7Q] yielded an abundance fitness of 0.282 ± 0.12. Variant KGCNCRTSGCLKNYCECYEAQIMCSSICKCIGCKNY [R7T] has an abundance fitness of 0.047 ± 0.14. With KGCNCRWSGCLKNYCECYEAQIMCSSICKCIGCKNY [R7W] the abundance fitness was -0.255 ± 0.073. With KGCNCRYSGCLKNYCECYEAQIMCSSICKCIGCKNY [R7Y] the abundance fitness was 0.035 ± 0.19. KGCNCRRAGCLKNYCECYEAQIMCSSICKCIGCKNY [S8A] gave an abundance fitness of -0.144 ± 0.083. Variant KGCNCRRCGCLKNYCECYEAQIMCSSICKCIGCKNY [S8C] has an abundance fitness of -0.581 ± 0.093. KGCNCRRDGCLKNYCECYEAQIMCSSICKCIGCKNY [S8D] gave an abundance fitness of -0.066 ± 0.098. Work on KGCNCRREGCLKNYCECYEAQIMCSSICKCIGCKNY [S8E] yielded an abundance fitness of -0.08 ± 0.1. For KGCNCRRFGCLKNYCECYEAQIMCSSICKCIGCKNY [S8F], the abundance fitness was -0.399 ± 0.15. Variant KGCNCRRGGCLKNYCECYEAQIMCSSICKCIGCKNY [S8G] has an abundance fitness of 0.034 ± 0.068. In the case of KGCNCRRHGCLKNYCECYEAQIMCSSICKCIGCKNY [S8H], the abundance fitness is reported as -0.461 ± 0.17. Variant KGCNCRRIGCLKNYCECYEAQIMCSSICKCIGCKNY [S8I] has an abundance fitness of 0.19 ± 0.37. KGCNCRRKGCLKNYCECYEAQIMCSSICKCIGCKNY [S8K] showed an abundance fitness of -0.107 ± 0.13. For KGCNCRRLGCLKNYCECYEAQIMCSSICKCIGCKNY [S8L], the abundance fitness was -0.106 ± 0.091. Work on KGCNCRRMGCLKNYCECYEAQIMCSSICKCIGCKNY [S8M] yielded an abundance fitness of -0.343 ± 0.12. In the case of KGCNCRRNGCLKNYCECYEAQIMCSSICKCIGCKNY [S8N], the abundance fitness is reported as -0.384 ± 0.13. Variant KGCNCRRQGCLKNYCECYEAQIMCSSICKCIGCKNY [S8Q] has an abundance fitness of -0.063 ± 0.11. Variant KGCNCRRRGCLKNYCECYEAQIMCSSICKCIGCKNY [S8R] has an abundance fitness of -0.169 ± 0.068. KGCNCRRVGCLKNYCECYEAQIMCSSICKCIGCKNY [S8V] gave an abundance fitness of -0.187 ± 0.077. KGCNCRRWGCLKNYCECYEAQIMCSSICKCIGCKNY [S8W] showed an abundance fitness of -0.527 ± 0.095. For KGCNCRRYGCLKNYCECYEAQIMCSSICKCIGCKNY [S8Y], the abundance fitness was -0.514 ± 0.13. For KGCNCRRSACLKNYCECYEAQIMCSSICKCIGCKNY [G9A], the abundance fitness was -0.339 ± 0.074. KGCNCRRSDCLKNYCECYEAQIMCSSICKCIGCKNY [G9D] gave an abundance fitness of 0.111 ± 0.09. For KGCNCRRSECLKNYCECYEAQIMCSSICKCIGCKNY [G9E], the abundance fitness was 0.006 ± 0.085. With KGCNCRRSLCLKNYCECYEAQIMCSSICKCIGCKNY [G9L] the abundance fitness was -0.629 ± 0.13. KGCNCRRSMCLKNYCECYEAQIMCSSICKCIGCKNY [G9M] gave an abundance fitness of -0.269 ± 0.1. Work on KGCNCRRSNCLKNYCECYEAQIMCSSICKCIGCKNY [G9N] yielded an abundance fitness of -0.248 ± 0.25. KGCNCRRSPCLKNYCECYEAQIMCSSICKCIGCKNY [G9P] gave an abundance fitness of -0.213 ± 0.092. KGCNCRRSQCLKNYCECYEAQIMCSSICKCIGCKNY [G9Q] showed an abundance fitness of -0.342 ± 0.14. KGCNCRRSSCLKNYCECYEAQIMCSSICKCIGCKNY [G9S] showed an abundance fitness of -0.795 ± 0.08. KGCNCRRSTCLKNYCECYEAQIMCSSICKCIGCKNY [G9T] gave an abundance fitness of -0.22 ± 0.092. Variant KGCNCRRSVCLKNYCECYEAQIMCSSICKCIGCKNY [G9V] has an abundance fitness of -0.334 ± 0.077. In the case of KGCNCRRSWCLKNYCECYEAQIMCSSICKCIGCKNY [G9W], the abundance fitness is reported as -1.51 ± 0.12. For KGCNCRRSGALKNYCECYEAQIMCSSICKCIGCKNY [C10A], the abundance fitness was -0.141 ± 0.091. With KGCNCRRSGDLKNYCECYEAQIMCSSICKCIGCKNY [C10D] the abundance fitness was -0.105 ± 0.098. Variant KGCNCRRSGELKNYCECYEAQIMCSSICKCIGCKNY [C10E] has an abundance fitness of 0.004 ± 0.076. KGCNCRRSGILKNYCECYEAQIMCSSICKCIGCKNY [C10I] gave an abundance fitness of -1.37 ± 0.47. KGCNCRRSGKLKNYCECYEAQIMCSSICKCIGCKNY [C10K] gave an abundance fitness of -0.323 ± 0.096. For KGCNCRRSGLLKNYCECYEAQIMCSSICKCIGCKNY [C10L], the abundance fitness was -0.414 ± 0.098. Variant KGCNCRRSGMLKNYCECYEAQIMCSSICKCIGCKNY [C10M] has an abundance fitness of -0.501 ± 0.11. In the case of KGCNCRRSGNLKNYCECYEAQIMCSSICKCIGCKNY [C10N], the abundance fitness is reported as -0.405 ± 0.11. With KGCNCRRSGPLKNYCECYEAQIMCSSICKCIGCKNY [C10P] the abundance fitness was -0.633 ± 0.15. Work on KGCNCRRSGQLKNYCECYEAQIMCSSICKCIGCKNY [C10Q] yielded an abundance fitness of -0.208 ± 0.086. KGCNCRRSGRLKNYCECYEAQIMCSSICKCIGCKNY [C10R] showed an abundance fitness of -0.539 ± 0.071. With KGCNCRRSGSLKNYCECYEAQIMCSSICKCIGCKNY [C10S] the abundance fitness was -0.213 ± 0.078. Work on KGCNCRRSGTLKNYCECYEAQIMCSSICKCIGCKNY [C10T] yielded an abundance fitness of -0.245 ± 0.093. In the case of KGCNCRRSGVLKNYCECYEAQIMCSSICKCIGCKNY [C10V], the abundance fitness is reported as -0.322 ± 0.075. KGCNCRRSGWLKNYCECYEAQIMCSSICKCIGCKNY [C10W] gave an abundance fitness of -0.418 ± 0.077.
